From publication PMC3979375 (2014)

Assays:
[1] = target: T1, GST-GUK, fusion protein of GST and the GUK domain of SAP102 (Rattus norvegicus (Rat), UniProt Q62936); assay: GST pulldown
T1 chain: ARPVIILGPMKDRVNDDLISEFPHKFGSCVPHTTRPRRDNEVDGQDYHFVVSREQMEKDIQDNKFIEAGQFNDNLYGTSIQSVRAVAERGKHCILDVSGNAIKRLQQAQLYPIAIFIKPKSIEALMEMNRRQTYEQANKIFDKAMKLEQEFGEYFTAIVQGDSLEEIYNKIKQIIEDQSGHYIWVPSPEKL

[2] = target: T2, GST-SH3-GUK, fusion protein of GST and the combined SH3-GUK domain of SAP102 (Rattus norvegicus (Rat), UniProt Q62936); assay: GST pulldown / amylose pulldown
T2 chain: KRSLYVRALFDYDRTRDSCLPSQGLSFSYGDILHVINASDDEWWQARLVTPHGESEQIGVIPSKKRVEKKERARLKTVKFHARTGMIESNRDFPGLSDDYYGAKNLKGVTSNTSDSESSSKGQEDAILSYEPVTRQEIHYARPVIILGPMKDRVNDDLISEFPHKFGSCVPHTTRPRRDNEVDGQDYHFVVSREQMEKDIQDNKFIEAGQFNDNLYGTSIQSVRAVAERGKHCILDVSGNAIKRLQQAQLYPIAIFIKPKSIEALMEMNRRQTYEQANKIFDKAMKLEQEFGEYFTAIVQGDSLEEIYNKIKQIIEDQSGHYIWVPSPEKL

[3] = target: T3, GST-SH3, fusion protein of GST and the SH3 domain of SAP102 (Rattus norvegicus (Rat), UniProt Q62936); assay: GST pulldown / amylose pulldown
T3 chain: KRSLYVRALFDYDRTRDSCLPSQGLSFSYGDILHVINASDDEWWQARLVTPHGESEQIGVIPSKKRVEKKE

binding result [1]: binds
binding result [2]: binds
binding result [3]: binds
B1: MBP-A2A-CT, fusion protein comprising maltose-binding protein and the carboxyl terminus of the A2A receptor (protein)
chain: RIREFRQTFRKIIRSHVLRQQEPFKAAGTSARVLAAHGSDGEQVSLRLNGHPPGVWANGSAPHPERRPNGYALGLVSGGSAQESQGNTGLPDVELLSHELKGVCPEPPGLDDPLAQDGAGVS
